# Measured values taken from the nanobody polyreactivity screen of Harvey et al. (2022).
# Test: yeast display, Sf9 membrane polyspecificity reagent, FACS + sequencing; frameworks hold sequencing errors
# Outline: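 Galactose induction of a Saccharomyces cerevisiae BJ5465 synthetic nanobody display library ran 36–48 hours. The cells were then stained for 1 hour at 4 °C with 10% biotinylated, detergent-solubilized Sf9 membrane reagent, pulled down on streptavidin microbeads and FACS-sorted into low and high (top ~1%) gates on expression and reagent-binding fluorescence. Labels for polyreactivity follow the gate of origin.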
row,Sequence,polyreactivity (PSR sort gate)
1,QVQLVESGGGLVQAGGSLRLSCAASGLTFYVYAMGWYRQAPGKERELVAAISSGGRTYYADSVKGRFTISRDNAKNTVYLQMTSLKPEDTAVYYCAAVRHRNYGYWGQGTQVTVSS,high polyreactivity
2,QVQLVESGGGLVQAGGSLRLSCAASGLTFYYYAMGWYRQAPGKERELVAAISATGGRTDYADSVKGRFTISRDNAKNTVYLQMNSLKPADPAVYYCAADTPYLRRRRGMDYWGQGTQVTVSS,high polyreactivity
3,QVQLVESGGGLVQAGGSLRLSCAASGLTFYYYAMGWYRQAPGKERELVAAITGSGGRTSYADSVKGRFTISRDNAKNTVYLQMNSLKPEDTAVYYCAARNKRRGYPWQGQQKVLNFDYWGQGTQVTVSS,high polyreactivity
4,QVQLVESGGGLVQAGGSLRLSCAASGLTFYYYYTMGWYRQAPGKERELVAAISRSGSTNYADSVKGRFTISRDNAKNTVYLQMNSLKPEDTAVYYCARSYRSDGSRFGYWGQGTQVTVSS,low polyreactivity
5,QVQLVESGGGLVQAGGSLRLSCAASGLTIFVNAMGWYRQAPGKERELVATISGGGSTYYADSVKGRFTISRDNAKNTVYLQMNSLKPEDTAVYYCNADVLFYTYYTRGRFDFDYWGQGTQVTVSS,low polyreactivity
6,QVQLVESGGGLVQAGGSLRLSCAASGLTIKPNAMGWYRQAPGKERELVAAIDWSGGSTYCADSVKGRFTISRDNAKNTVDLQMNSLKPEDTAVYYCAADPPDRLFLYDYWGQGTQVTVSS,low polyreactivity
7,QVQLVESGGGLVQAGGSLRLSCAASGLTIQRNDMGWYRQAPGKEREFVATITSNAGSTYYADSVKGRFTISRDNAKNPVYFQMNSLKPEDTAVYYWARERWWGGSDYWGQGTQVTVSS,high polyreactivity
8,QVQLVESGGGLVQAGGSLRLSCAASGLTIQYNAMVWYRQAPGKERELVAAISRSGGSTYYADSVKGRFTISRDNAKNTEYLQMISLKPEDTAVYYCNKVSPYRGYYWGQGTQVTVSS,high polyreactivity
9,QVQLVESGGGLVQAGGSLRLSCAASGLTISTNAMGWYRQAPGKERELVAAISRAGSTYYADSVKGRFTISRDNAKNTVYLQMNSLKPEDTAVYYCAAKYRYSTYHRGSFNFWGQGTQVTVSS,high polyreactivity
10,QVQLVESGGGLVQAGGSLRLSCAASGLTISWNAMGWYRQAPGKERELVAAISSRGGSTYYADSVKGRFKISRDNAKNTVYLQMNSLKPEDTAVYYCAAEGYTYYPVYSTRMYYWGQGTQVTVSS,low polyreactivity
11,QVQLVESGGGLVQAGGSLRLSCAASGLTISYYAMGRYRQAPGKERELVAAISTDSSTNYADSVKGRFTISRDNAKNTVYLQMNSLKPEDTAVYYCAAVPRGTQCAMDYWGQGTQVTVSS,low polyreactivity
12,QVQLVESGGGLVQAGGSLRLSCAASGLTITSNAMGWYRQAPGKERELVASITWSGGSTSYADSVKGRFTISRDNAKNTVYLQMNSLKPEDTAVYDCAADRQRSHRVGTKGHRVGYWGQGTQVTVSS,high polyreactivity
13,QVQLVESGGGLVQAGGSLRLSCAASGLTIWKYTMGWYRQAPGKERELVAAISISGTNTYYADSVKGRFTISRDNAKNTVYLQMNSLKPEDTAVYYCAAVRGYPPTNYYYWGQGTQVSVSS,high polyreactivity
14,QVQLVESGGGLVQAGGSLRLSCAASGLTIYAYAMGWYRQAPGKERELVAIISYNGGRTYYADSVKGRFTISRDNAKNTVYLQMNSLKPEDTAVYYCAARGREVRYDYWGQGTQVTVSS,high polyreactivity
15,QVQLVESGGGLVQAGGSLRLSCAASGLTLETNAMGWYRQAPGKERELVAGITYSGGTTYYADSVKGRFTISRDNAKNTVYLQMNSLKPEDTAVYYCNAQERRVRDYDYWGQGTEVTVSS,low polyreactivity
16,QVQLVESGGGLVQAGGSLRLSCAASGLTLGSYALGWYRQAPGKERELVAAISRRSGRTYYADSVKGRFTISRDNAKNTVYLQMNSLKPEDTAVYYCNRGYTAQVYTEFDYWGQGTQVTVSS,low polyreactivity
17,QVQLVESGGGLVQAGGSLRLSCAASGLTLPYNAMGSYRQAPGKERELVAAITCIGGSTYYADSVKGRFTISRDNAKNTVYLEMNSLKPEDSAVYYCAKEVRGPIIYLEGYWGQGTQVTVSS,low polyreactivity
